From article PMC10957154

Molecular target: T1, DJ-1 (mouse (endogenous in mouse frontal cortex)), Q99LX0
T1 chain: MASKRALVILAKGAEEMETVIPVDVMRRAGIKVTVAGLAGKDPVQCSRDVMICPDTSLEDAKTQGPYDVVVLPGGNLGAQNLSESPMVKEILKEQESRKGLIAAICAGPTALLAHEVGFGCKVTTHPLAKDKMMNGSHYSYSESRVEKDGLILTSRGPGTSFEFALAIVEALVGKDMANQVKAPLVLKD
Assay: cross-linking
Details: remark: other sources report otherwise

B1: DJ-1, Q99LX0 1-189 (natural protein)
chain: MASKRALVILAKGAEEMETVIPVDVMRRAGIKVTVAGLAGKDPVQCSRDVMICPDTSLEDAKTQGPYDVVVLPGGNLGAQNLSESPMVKEILKEQESRKGLIAAICAGPTALLAHEVGFGCKVTTHPLAKDKMMNGSHYSYSESRVEKDGLILTSRGPGTSFEFALAIVEALVGKDMANQVKAPLVLKD
- stoichiometry N: 2
